{
  "source": "the DeepSol protein solubility set",
  "data": [
    {"assay": "soluble on expression in E. coli; label from the status in PepcDB or PDB records", "values": [
      {"sequence": "MAKVYYEKDVTVNVLKEKKVAIIGYGSQGHAHAQNLRDNGFDVVVGLRKGKSWDKAKEDGFSVYTVAEAAKQADVVMILLPDELQPEVYEEEIAPNLQAGNSLVFAHGFNVHFDQVKPPVNVDVFLVAPKGPGHLVRRTFSEGGAVPALFAVYQDATGVATEKALSYADGIGATRAGVLETTFKEETETDLFGEQAVLCGGVTALVKAGFETLVDAGYQPELAYFECLHELKLIVDLMYEGGLENMRYSVSDTAQWGDFVSGPRVVTEDTKKAMGTVLAEIQDGTFARGWIAEHKAGKPNFYATNEKENEHEIEVVGRKLRGMMPFVQPRVKAGVK", "soluble on expression in E. coli": "not soluble"},
      {"sequence": "MAKYFDIDDILIEEEFVPVLFHKTANGVTIDPSAETNCVSLLIPSAKAEQGSKVELPFWLAHELHLRQAVTINLPPCFDQKTRLEVQADAAYVDLRSRCPYFYEFGCKIEPLVTDRTLGILLSTAFKIRYKEALTKVYTAAHITASKYLSFLTKEETNLYEAAHLSMTAFKKWRTGGPRFQRASILGRKRKDSN", "soluble on expression in E. coli": "soluble"},
      {"sequence": "MALALTLREYEFSVLLLEARELPEKVDDPRPLALSYGSRLILQRLDIWKNLTQPAPITTIHISNRGHFGHAVLTPDDAGVPALGYVVNYHDLYHSMGRAIRGSNAVYQTNALVTAIRTDLSLAQVAYQQGSTTRQVRARLLVLADGGKLAEQIDGVRYHTYDYQQTAIVANVKVESPRPGTAFERFTLNGPLALLPSGEGYALVWTMPAAAAEKILKLDDRSFLLHLHEQFGDRMGEFTHVGPRSSFPLILKHASTITGHRAVLIGNAAQALHPVAGQGFNLGLRDAWELASEISRIPSGTPGEPGSTRMLAAYSRRRQSDKRISRLFTDSLVKLFTADLPLVQTCSGMGLAALDNLPPARRLIAHQMIFGTKGWFIGLEHHHHHH", "soluble on expression in E. coli": "soluble"},
      {"sequence": "MALDNAKTSQKLQSLAELDGKAPSHRNLNVQTWSTAEGAKVLFVEARELPMFDLRLIFAAGSSQDGNAPGVALLTNAMLNEGVAGKDVGAIAQGFEGLGADFGNGAYKDMAVASLRSLSAVDKREPALKLFAEVVGKPTFPADSLARIKNQMLAGFEYQKQNPGKLASLELMKRLYGTHPYAHASDGDAKSIPPITLAQLKAFHAKAYAAGNVVIALVGDLSRSDAEAIAAQVSAALPKGPALAKIEQPAEPKASIGHIEFPSSQTSLMLAQLGIDRDDPDYAAVSLGNQILGGGGFGTRLMSEVREKRGLTYGVYSGFTPMQARGPFMINLQTRAEMSEGTLKLVQDVFAEYLKNGPTQKELDDAKRELAGSFPLSTASNADIVGQLGAMGFYNLPLSYLEDFMRQSQELTVEQVKAAMNKHLNVDKMVIVSAGPTVAQKPLEHHHHHH", "soluble on expression in E. coli": "not soluble"},
      {"sequence": "MALEKEEEASQNGAFCVLDGLYCEEETGFVEDDLDDDGDLDFLEKSDESVVKFQFLPLLDMFLWDDDEILSLISKENETNPCFGEQILDGFLVSCRKEALDWVLRVKSHYGFTSLTAILAVNYFDRFMTSIKLQTDKPWMSQLVAVASLSLAAKVEEIQVPLLLDLQVEEARYLFEAKTIQRMELLILSTLQWRMHPVTPISFFDHIIRRFGSKWHQQLDFCRKCERLLISVIADTRFMRYFPSVLATAIMILVFEELKPCDEVEYQSQITTLLKVNQEKVNECYELLLEHNPSKKRMMNLVDQDSPSGVLDFDDSSNSSWNVSTTASVSSSSSSPEPLLKRRRVQEQQMRLPSINRMFLDVLSSPR", "soluble on expression in E. coli": "soluble"},
      {"sequence": "MALHVDYTAERAFARIIGGLRSARLDAGLSQNALAAGMPVRGRAISEWETRAVEPTLGHLIQWARELGRRLVIVGRDGELRVGPVRQRPGETFEIFERRRLAVPLRNRRLALGMAQGELGALVGVSRDSIQRWELVRVPPRPIAHVVWAQKLGCSLDILVVPDGARRVRRTGFAPAGLAGSTLERPGLRVQRLGL", "soluble on expression in E. coli": "not soluble"},
      {"sequence": "MALSDVKVRSAKPEAKAYKLTDGEGMVLLVHPNGSKYWRLRYRFGGKEKMLALGKYPEVSLADARARRDEARKLLANGVDPSENKKAVKVEQEQEAITFEVVARDWHASNQKWSASHSARVLKSLEDNLFTAIGKRNIAELKTRDLLVPIKAVESSGRLEVAARLQQRTTAIMRFAVQSGLIDYNPAQEIAGAVATAKRQHRAALELNRIPELLHRIDHYSGRPLTRLAVELTLLVFIRSSELRFARWSEIDFETAMWTIPGEREQLEGVKHSQRGSKMRTPHLVPLSRQALSILEKIKSMSGNRELIFVGDHDPRKPMSENTVNKALRVMGYDTKVEVCGHGFRTMACSSLIESGLWSRDAVERQMSHQERSSVRAAYIHKAEHLGERRLMFEVVNKNWPPS", "soluble on expression in E. coli": "not soluble"},
      {"sequence": "MALVDQESCLRGFYSVFLRHCDVEPAIATFDGVRSPPDVVRLYPKPRYDYTLASAFLGTAVSGYITSRRDNAPNKNTGHRYVYTTSILIAVVTSVDTQHRSPSRCFMAMGESYFLQDEKCVFWLEHHHHHH", "soluble on expression in E. coli": "not soluble"},
      {"sequence": "MALVNSILKANEYSFKVPEFDGKNVSSILGFDSNQLPANAPIEDRRSAATCLQTRGMLLGVFDGHAGCACSQAVSERLFYYIAVSLLPHETLLEIENAVESGRALLPILQWHKHPNDYFSKEASKLYFNSLRTYWQELIDLNTGESTDIDVKEALINAFKRLDNDISLEAQVGDPNSFLNYLVLRVAFSGATACVAHVDGVDLHVANTGDSRAMLGVQEEDGSWSAVTLSNDHNAQNERELERLKLEHPKSEAKSVVKQDRLLGLLMPFRAFGDVKFKWSIDLQKRVIESGPDQLNDNEYTKFIPPNYHTPPYLTAEPEVTYHRLRPQDKFLVLATDGLWETMHRQDVVRIVGEYLTGMHHQQPIAVGGYKVTLGQMHGLLTERRTKMSSVFEDQNAATHLIRHAVGNNEFGTVDHERLSKMLSLPEELARMYRDDITIIVVQFNSEGHHHHHH", "soluble on expression in E. coli": "soluble"},
      {"sequence": "MAMEKPVLWYIADPMCSWCWGFAPVIENIRQEYSAFLTVKIMPGGLRPGTNTPLLPEKRAQILHHWHSVHITTGQPFTFENALPEGFIYDTEPACRGVVSVSLIEPEKVFPFFAAIQRAFYVGQEDVAQLAILKKLAVDLGIPESRFTPVFQSDEAKQRTLAGFQRVAQWGISGFPALVVESGTDRYLITTGYRPIEALRQLLDTWLQQHGV", "soluble on expression in E. coli": "soluble"},
      {"sequence": "MANFIDRRLNAKGKSTVNRQRFINRYKQQIKKAVSDAVTRRSVTDVDKGEKISIPTRDISEPMFHQGKGGVRDRVHPGNDQFTRGDKIDRPQGGSGGGAGKGDASDSGEGNDDFVFEISKDEYLELLFEDLELPNLQKNRLNKLVEYQIYRAGFTNDGVPANINIVRSLRSSLARRIAMSASKKKLLKESEQELAELENIPGTKAELILDLKAQIEELKRKIAKVPFIDTFDLRFNNFSRREVPSSQAVMFCLMDVSGSMDQATKDMAKRFYILLYLFLTRTYKNLEVVYIRHHTQAKEVDEHEFFYSQETGGTIVSSALKLMHEIQQARYPADEWNIYAAQASDGDNWADDSPTCKQLLEQKILPLVRYFSYIEITNRAHQTLWREYESLQQHYDNIAVQHIRQAEDIYPVFRELFKKQAVLEHHHHHH", "soluble on expression in E. coli": "not soluble"},
      {"sequence": "MANFVQLSETPAACSSNPCGPEAAGTCKETNSGYICRCNQGYRISLDGTGNVTCIVRQESG", "soluble on expression in E. coli": "soluble"},
      {"sequence": "MANIEIYTKATCPFCHRAKALLNSKGVSFQEIAIDGDAVKREEMIKRSGRTTVPQIFIDAQHIGGCDDLYALDARGGLDPLLR", "soluble on expression in E. coli": "not soluble"},
      {"sequence": "MANLKRYNDGLFKLDLWIRRLLTIGESNELYTALCDGVCDIVGAGTAVFTTIDMQAGTLTYMAASGGWNAMVKGLAVPMKSGNLCASVAACGTPLRIDQISSRTDSCELLQVMDMDAAVLVPVLEEGRVTACLSAFRVGNPFDQIDEQLLQQYAHTASMVLRTVRLMVDLR", "soluble on expression in E. coli": "not soluble"},
      {"sequence": "MANQKKDSLSTLFSEEVHGPFVTFLFNTHVAHQNVEKDSLVLKNFAKAAKTRFEKKFPEEKWSVFQEKIDALLADASFWRNGTASVSIILSPENTFVQRLDVPVDDQYYVDTIPYLLGLVKDKQFNYHYYLLALNRDSMKLYKVDHTTVTPVELPKDAPTDVVTALGDELTGGNLNFSTQGSSNGSKEGVAYHSINTKDKEVEIDWVNYYQAVDTFLKDQLDNPEKLPLYLYALPENQTLFKKIAKNPYYDCSISVAASPAQATIQDIRSASEKIAAELTEKETASYNKLLDRKFLDQFTDISPAAADGKISHLFIATSLFVTENNEMSSEEYDRRKLLNTIAYQVIQNGGQVFVLDQKAAPDEKSLAAILRY", "soluble on expression in E. coli": "not soluble"}
    ]}
  ]
}
